# Assay results published in PMC2192344.
# Like-named read-outs stand apart in the source and are kept apart here.
# What was measured:
# His6-Elf-1 [1] = biological target: T1, His6-Elf-1 (human, UniProt P32519 1-619); assay: EMSA
# His6-Elf-1 [2] = biological target: T1, His6-Elf-1; assay: EMSA; remark: listed apart in the source
# T1 sequence (P32519 whole entry): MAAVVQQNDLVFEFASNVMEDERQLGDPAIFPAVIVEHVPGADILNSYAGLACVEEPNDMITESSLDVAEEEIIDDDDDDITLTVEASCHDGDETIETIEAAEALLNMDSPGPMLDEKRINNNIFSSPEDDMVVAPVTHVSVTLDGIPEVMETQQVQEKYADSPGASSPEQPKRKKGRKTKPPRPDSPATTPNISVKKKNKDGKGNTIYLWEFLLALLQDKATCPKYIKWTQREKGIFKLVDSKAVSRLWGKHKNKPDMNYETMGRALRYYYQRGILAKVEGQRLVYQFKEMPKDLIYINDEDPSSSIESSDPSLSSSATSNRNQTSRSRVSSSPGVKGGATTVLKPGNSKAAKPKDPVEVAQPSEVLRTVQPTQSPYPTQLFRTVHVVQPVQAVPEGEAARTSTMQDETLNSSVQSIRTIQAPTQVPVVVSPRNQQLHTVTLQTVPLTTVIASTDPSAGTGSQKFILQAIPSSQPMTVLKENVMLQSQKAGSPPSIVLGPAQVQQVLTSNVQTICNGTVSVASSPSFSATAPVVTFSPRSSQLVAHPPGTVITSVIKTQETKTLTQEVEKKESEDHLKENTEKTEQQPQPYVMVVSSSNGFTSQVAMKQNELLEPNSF
Binder,binding result (His6-Elf-1 [1]),binding result (His6-Elf-1 [2])
m2 -97/-84 (dsDNA) DNA 1: AAATACCGGAAGTG DNA 2: CACTTCCGGTATTT,binds,
m3 -97/-84 (dsDNA) DNA 1: AAATATCGGAAGTG DNA 2: CACTTCCGATATTT,,no binding
